Consider 91 sequences from the supplement of paper PMC9112550, “Optimization of the antimicrobial peptide Bac7 by deep mutational scanning” (BMC Biology, 2022).

The test system of the data set is Escherichia coli TOP10. Kind of data set: shrunken log2 fold change of peptide-encoding DNA abundance (4.5 h post-induction vs induction); higher = less antimicrobial activity (less host growth inhibition). To be noted: time post-induction: 4.5 h; library: site-saturation at positions 5, 18, 19, 20.
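Further: peptides expressed intracellularly from a pBAD plasmid library in pooled LB shake-flask culture, induced with 0.3% L-arabinose, DNA abundance read by NGS, three biological replicates, DESeq2 with apeglm shrinkage.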

RRIRNRPPRLPRPRPRPNYKPRP: the “shrunken log2 fold change” value is -0.827.

For RRIRQRPPRLPRPRPRPIVDPRP, the “shrunken log2 fold change” value was determined as 0.0252.

Regarding RRIRKRPPRLPRPRPRPEHLPRP, the “shrunken log2 fold change” value was 0.132.

Take RRIRTRPPRLPRPRPRPIDVPRP: the “shrunken log2 fold change” value was -0.0217.

Regarding RRIRQRPPRLPRPRPRPSIRPRP, the “shrunken log2 fold change” value is -0.523.

Turning to RRIRLRPPRLPRPRPRPWKSPRP, the “shrunken log2 fold change” value is 0.0457.

Take RRIRERPPRLPRPRPRPSVEPRP: the “shrunken log2 fold change” value was -0.326.

Take RRIRLRPPRLPRPRPRPRVLPRP: the “shrunken log2 fold change” value is -0.132.

Turning to RRIRWRPPRLPRPRPRPHPRPRP, the “shrunken log2 fold change” value worked out at 0.451.

With RRIRARPPRLPRPRPRPRDQPRP, the “shrunken log2 fold change” value worked out at 0.499.

On to RRIRWRPPRLPRPRPRPWSAPRP, for which the “shrunken log2 fold change” value was found to be 0.228.

Turning to RRIRIRPPRLPRPRPRPRRTPRP, the “shrunken log2 fold change” value is -0.0386.

Turning to RRIRQRPPRLPRPRPRPFISPRP, the “shrunken log2 fold change” value was -0.0195.

Turning to RRIRKRPPRLPRPRPRPFWSPRP, the “shrunken log2 fold change” value was -0.00917.

For RRIRTRPPRLPRPRPRPEYPPRP, the “shrunken log2 fold change” value is -0.449.

With RRIRERPPRLPRPRPRPLCRPRP, the “shrunken log2 fold change” value was -0.0964.

Take RRIRMRPPRLPRPRPRPQRKPRP: the “shrunken log2 fold change” value was found to be 0.605.

As for RRIRRRPPRLPRPRPRPGPFPRP, the “shrunken log2 fold change” value is 0.162.

As for RRIRARPPRLPRPRPRPHNGPRP, the “shrunken log2 fold change” value came out at 0.0647.

Consider RRIRRRPPRLPRPRPRPEFPPRP, for which the “shrunken log2 fold change” value came to 0.154.

RRIRSRPPRLPRPRPRPGMCPRP: the “shrunken log2 fold change” value came out at 0.0439.

In the case of RRIRDRPPRLPRPRPRPDWAPRP, the “shrunken log2 fold change” value was found to be 0.534.

On to RRIRTRPPRLPRPRPRPCADPRP, for which the “shrunken log2 fold change” value was -0.0062.

With RRIRVRPPRLPRPRPRPHSMPRP, the “shrunken log2 fold change” value is -0.333.

Regarding RRIRMRPPRLPRPRPRPTTAPRP, the “shrunken log2 fold change” value came to 1.19.

Turning to RRIRMRPPRLPRPRPRPGSAPRP, the “shrunken log2 fold change” value was determined as 1.4.

Take RRIRSRPPRLPRPRPRPWKCPRP: the “shrunken log2 fold change” value is -0.0598.

In the case of RRIRLRPPRLPRPRPRPAWAPRP, the “shrunken log2 fold change” value stood at 0.232.

Take RRIRIRPPRLPRPRPRPIPYPRP: the “shrunken log2 fold change” value was -0.295.

With RRIRGRPPRLPRPRPRPREVPRP, the “shrunken log2 fold change” value stood at 1.05.

On to RRIRERPPRLPRPRPRPRNKPRP, for which the “shrunken log2 fold change” value is -0.121.

As to RRIRVRPPRLPRPRPRPTIFPRP, the “shrunken log2 fold change” value was -0.469.

In the case of RRIRRRPPRLPRPRPRPKRPPRP, the “shrunken log2 fold change” value is 0.656.

As for RRIRKRPPRLPRPRPRPVMIPRP, the “shrunken log2 fold change” value is 0.0956.

Turning to RRIRSRPPRLPRPRPRPMQHPRP, the “shrunken log2 fold change” value was -0.122.

Consider RRIRFRPPRLPRPRPRPVPPPRP, for which the “shrunken log2 fold change” value turned out to be 0.46.

Turning to RRIRYRPPRLPRPRPRPSTDPRP, the “shrunken log2 fold change” value is -0.011.

With RRIRIRPPRLPRPRPRPWYFPRP, the “shrunken log2 fold change” value is -0.19.

On to RRIRDRPPRLPRPRPRPKINPRP, for which the “shrunken log2 fold change” value was -0.389.

Regarding RRIRPRPPRLPRPRPRPRFFPRP, the “shrunken log2 fold change” value was found to be 0.211.

With RRIRNRPPRLPRPRPRPYSKPRP, the “shrunken log2 fold change” value is -0.926.

For the sequence RRIRIRPPRLPRPRPRPCMNPRP, the “shrunken log2 fold change” value was -0.307.

Take RRIRHRPPRLPRPRPRPCVNPRP: the “shrunken log2 fold change” value was -0.166.

In the case of RRIRLRPPRLPRPRPRPPFAPRP, the “shrunken log2 fold change” value was determined as 0.543.

As to RRIRFRPPRLPRPRPRPVSMPRP, the “shrunken log2 fold change” value was determined as 0.174.

Regarding RRIRIRPPRLPRPRPRPCVCPRP, the “shrunken log2 fold change” value is -0.0463.

Regarding RRIRPRPPRLPRPRPRPYDAPRP, the “shrunken log2 fold change” value is -0.0642.

For the sequence RRIRLRPPRLPRPRPRPDMYPRP, the “shrunken log2 fold change” value was -0.0404.

Regarding RRIRLRPPRLPRPRPRPGKKPRP, the “shrunken log2 fold change” value was found to be 0.0971.

As for RRIRERPPRLPRPRPRPHEFPRP, the “shrunken log2 fold change” value was -0.0591.

Consider RRIRCRPPRLPRPRPRPVKQPRP, for which the “shrunken log2 fold change” value is -0.222.

Regarding RRIRHRPPRLPRPRPRPDLSPRP, the “shrunken log2 fold change” value is -0.000678.

For RRIRIRPPRLPRPRPRPAIDPRP, the “shrunken log2 fold change” value is -0.239.

On to RRIRHRPPRLPRPRPRPRRKPRP, for which the “shrunken log2 fold change” value stood at 0.0896.

With RRIRTRPPRLPRPRPRPLDLPRP, the “shrunken log2 fold change” value was 0.0209.

For the sequence RRIRERPPRLPRPRPRPHQFPRP, the “shrunken log2 fold change” value is 0.00386.

For the sequence RRIRPRPPRLPRPRPRPRQIPRP, the “shrunken log2 fold change” value was -0.0965.

Turning to RRIRFRPPRLPRPRPRPTWIPRP, the “shrunken log2 fold change” value is -0.222.

For the sequence RRIRCRPPRLPRPRPRPEQMPRP, the “shrunken log2 fold change” value amounted to 0.45.

Turning to RRIRKRPPRLPRPRPRPLCVPRP, the “shrunken log2 fold change” value is 0.247.

Consider RRIRDRPPRLPRPRPRPQRYPRP, for which the “shrunken log2 fold change” value is -0.0811.

In the case of RRIRQRPPRLPRPRPRPHYHPRP, the “shrunken log2 fold change” value is -0.127.

RRIRFRPPRLPRPRPRPQNKPRP: the “shrunken log2 fold change” value is -0.592.

For RRIRRRPPRLPRPRPRPERAPRP, the “shrunken log2 fold change” value stood at 0.79.

As for RRIRTRPPRLPRPRPRPPFWPRP, the “shrunken log2 fold change” value stood at 0.379.

In the case of RRIRLRPPRLPRPRPRPGILPRP, the “shrunken log2 fold change” value was -0.105.

Turning to RRIRHRPPRLPRPRPRPSWWPRP, the “shrunken log2 fold change” value stood at 0.348.

As to RRIRGRPPRLPRPRPRPGCVPRP, the “shrunken log2 fold change” value was 1.08.

On to RRIRPRPPRLPRPRPRPRVEPRP, for which the “shrunken log2 fold change” value was determined as 0.625.

On to RRIRQRPPRLPRPRPRPQNEPRP, for which the “shrunken log2 fold change” value was determined as 0.121.

In the case of RRIRYRPPRLPRPRPRPDDYPRP, the “shrunken log2 fold change” value is 0.0219.

Turning to RRIRWRPPRLPRPRPRPVERPRP, the “shrunken log2 fold change” value was determined as 0.398.

On to RRIRRRPPRLPRPRPRPMEPPRP, for which the “shrunken log2 fold change” value amounted to 0.0257.

With RRIRFRPPRLPRPRPRPYINPRP, the “shrunken log2 fold change” value was -0.647.

As to RRIRMRPPRLPRPRPRPLDDPRP, the “shrunken log2 fold change” value was 3.25.

Consider RRIRWRPPRLPRPRPRPTLDPRP, for which the “shrunken log2 fold change” value came to 0.745.

On to RRIRKRPPRLPRPRPRPEQEPRP, for which the “shrunken log2 fold change” value amounted to 0.408.

Regarding RRIRKRPPRLPRPRPRPEKSPRP, the “shrunken log2 fold change” value was 0.0144.

For the sequence RRIRGRPPRLPRPRPRPGFNPRP, the “shrunken log2 fold change” value stood at 0.235.

In the case of RRIRTRPPRLPRPRPRPHMNPRP, the “shrunken log2 fold change” value is -0.547.

As to RRIRDRPPRLPRPRPRPFKKPRP, the “shrunken log2 fold change” value is -0.145.

For the sequence RRIRNRPPRLPRPRPRPYMTPRP, the “shrunken log2 fold change” value was -0.509.

As for RRIRPRPPRLPRPRPRPPKHPRP, the “shrunken log2 fold change” value was found to be 0.499.

Consider RRIRVRPPRLPRPRPRPNCNPRP, for which the “shrunken log2 fold change” value is -0.273.

RRIRRRPPRLPRPRPRPMYAPRP: the “shrunken log2 fold change” value turned out to be 0.148.

RRIRIRPPRLPRPRPRPVTLPRP: the “shrunken log2 fold change” value was -0.093.

As for RRIRSRPPRLPRPRPRPVNDPRP, the “shrunken log2 fold change” value was -0.389.

Turning to RRIRLRPPRLPRPRPRPDFSPRP, the “shrunken log2 fold change” value was 0.177.

RRIRSRPPRLPRPRPRPQLCPRP: the “shrunken log2 fold change” value worked out at 0.0696.

As to RRIRIRPPRLPRPRPRPFGNPRP, the “shrunken log2 fold change” value is -0.118.

For the sequence RRIRLRPPRLPRPRPRPMNCPRP, the “shrunken log2 fold change” value is -0.507.
